# How the values were obtained:
# [1] = Hydrophobicity (hydrophobic index) k′rel relative to human insulin by isocratic RP-HPLC; type: physicochemical; settings: LiChrosorb RP18, isocratic elution, 40° C., pH 7.3 phosphate/acetonitrile
# Procedure: The elution was monitored by following the UV absorption of the eluate at 214 nm. Void time, t0, was found by injecting 0.1 mM sodium nitrate.
# human insulin receptor = human insulin receptor (Homo sapiens, UniProt P06213); test: Assay (I) insulin receptor binding, SPA antibody capture assay; settings: recombinant human insulin receptor - exon 11, A14 Tyr[125I]-human insulin tracer
# Sequence of human insulin receptor (P06213 28-746 isoform P06213-2 limits assumed): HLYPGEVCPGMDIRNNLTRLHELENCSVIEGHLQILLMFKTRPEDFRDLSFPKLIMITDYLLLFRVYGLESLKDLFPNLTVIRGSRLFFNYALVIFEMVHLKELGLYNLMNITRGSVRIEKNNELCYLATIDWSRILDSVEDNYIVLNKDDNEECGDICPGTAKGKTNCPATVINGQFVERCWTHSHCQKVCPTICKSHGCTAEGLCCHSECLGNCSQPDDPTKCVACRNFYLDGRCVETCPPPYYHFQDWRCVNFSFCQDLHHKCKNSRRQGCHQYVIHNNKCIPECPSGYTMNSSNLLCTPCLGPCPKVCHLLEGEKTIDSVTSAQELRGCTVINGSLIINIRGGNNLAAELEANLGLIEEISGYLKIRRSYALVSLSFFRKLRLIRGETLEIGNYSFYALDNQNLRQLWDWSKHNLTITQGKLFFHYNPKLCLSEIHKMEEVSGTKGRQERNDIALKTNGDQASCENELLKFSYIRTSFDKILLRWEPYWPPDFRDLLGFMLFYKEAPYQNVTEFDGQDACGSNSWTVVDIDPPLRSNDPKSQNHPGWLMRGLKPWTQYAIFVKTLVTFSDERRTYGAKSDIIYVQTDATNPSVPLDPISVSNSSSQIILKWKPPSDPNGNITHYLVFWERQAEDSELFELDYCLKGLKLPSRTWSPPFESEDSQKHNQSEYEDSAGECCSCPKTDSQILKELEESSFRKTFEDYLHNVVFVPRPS
# Sequence of human insulin receptor (P06213 763-1382 partner limits assumed): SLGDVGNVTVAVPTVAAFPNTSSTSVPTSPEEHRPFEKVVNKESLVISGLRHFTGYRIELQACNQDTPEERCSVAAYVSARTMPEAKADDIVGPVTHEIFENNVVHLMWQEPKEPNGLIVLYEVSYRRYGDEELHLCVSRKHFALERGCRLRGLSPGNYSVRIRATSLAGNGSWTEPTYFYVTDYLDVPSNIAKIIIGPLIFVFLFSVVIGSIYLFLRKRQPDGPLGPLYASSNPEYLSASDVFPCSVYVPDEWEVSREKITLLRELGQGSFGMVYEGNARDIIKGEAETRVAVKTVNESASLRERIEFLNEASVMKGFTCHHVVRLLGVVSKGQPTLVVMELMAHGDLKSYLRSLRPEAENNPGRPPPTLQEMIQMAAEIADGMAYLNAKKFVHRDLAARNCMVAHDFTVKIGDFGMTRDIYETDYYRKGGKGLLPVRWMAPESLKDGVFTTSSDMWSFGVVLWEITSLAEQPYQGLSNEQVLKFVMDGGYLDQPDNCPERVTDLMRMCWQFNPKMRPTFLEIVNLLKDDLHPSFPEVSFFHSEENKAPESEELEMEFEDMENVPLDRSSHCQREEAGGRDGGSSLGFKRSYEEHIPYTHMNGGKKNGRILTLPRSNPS
# Procedure: SPA-PVT antibody-binding beads, anti-mouse reagent (Amersham Biosciences, Cat No. PRNQ0017) were mixed with 25 ml of binding buffer (100 mM HEPES pH 7.8; 100 mM sodium chloride, 10 mM MgSO4, 0.025% Tween-20). […] A total of 100 μl was then added and a dilution series is made from appropriate samples. To the dilution series was then added 100 μl of reagent mix and the samples were incubated for 16 hours while gently shaken. The phases were the then separated by centrifugation for 1 min and the plates counted in a Topcounter. The binding data were fitted using the nonlinear regression algorithm in the GraphPad Prism 2.01 (GraphPad Software, San Diego, Calif.).
# Specific antibodies (F12) were produced by monoclonal technique: RBF mice were immunized by injecting 50 μg of purified mIR in FCA subcutaneously followed by two injections with 20 μg of mIR in FIA. Highresponder mice were boosted intravenously with 25 μg of mIR and the spleens were harvested after 3 days. Spleen cells were fused with the myeloma Fox cell line (Kohler, G & Milstein C. (1976), European J. Immunology, 6:511-19; Taggart RT et al (1983), Science 219:1228-30). Supernatants were screened for antibody production in a mIR specific ELISA. Positive wells were cloned and tested in Western blotting.
# Sprague Dawley male rats = test: Assay (II) potency relative to human insulin, euglycaemic clamp with i.v. infusion; type: in vivo; settings: rat clamp, i.v. infusion for 300 min, 15 and 20 pmol/min/kg
# Source text: Sprague Dawley male rats weighing 238-383 g on the experimental day were used for the clamp experiment. The rats had free access to feed under controlled ambient conditions and were fasted overnight (from 3 pm) prior to the clamp experiment.
# The rats were acclimatized in the animal facilities for at least 1 week prior to the surgical procedure. Approximately 1 week prior to the clamp experiment Tygon catheters were inserted under halothane anaesthesia into the jugular vein (for infusion) and the carotid artery (for blood sampling) and exteriorised and fixed on the back of the neck. The rats were given Streptocilin vet. (Boehringer Ingelheim; 0.15 ml/rat, i.m.) post-surgically and placed in an animal care unit (25° C.) during the recovery period. In order to obtain analgesia, Anorphin (0.06 mg/rat, s.c.) was administered during anaesthesia and Rimadyl (1.5 mg/kg, s.c.) was administered after full recovery from the anaesthesia (2-3 h) and again once daily for 2 days.
# The clamp technique employed was adapted from (1). At 7 am on the experimental day overnight fasted (from 3 pm the previous day) rats were weighed and connected to the sampling syringes and infusion system (Harvard 22 Basic pumps, Harvard, and Perfectum Hypodermic glass syringe, Aldrich) and then placed into individual clamp cages where they rested for ca. 45 min before start of experiment. The rats were able to move freely on their usual bedding during the entire experiment and had free access to drinking water. […] Plasma glucose levels were measured at 10 min intervals throughout and infusion of 20% aqueous glucose was adjusted accordingly in order to maintain euglyceamia. Samples of re-suspended erythrocytes were pooled from each rat and returned in about ½ ml volumes via the carotid catheter.
# Rats were killed at the end of experiment using a pentobarbital overdose.
# Test compounds and doses: Insulins to be tested were diluted from a stock solution containing 97 μM of the insulin derivative in 5 mM phosphate pH 7.7. The final concentration in the solution ready for use was 0.45 μM of the insulin derivative, 5 mM of phosphate, 100 mM of sodium chloride, 0.007% of polysorbate 20. The pH was 7.7 and the i.v. infusion rate was 15 and 20 pmol-min^−1−kg^−1.
# Both stock solutions were stored at −20 C. and thawed overnight at 4° C. before use. The solutions were gently turned upside down several times 15 min before they were transferred to the infusion syringes.
Substance,Receptor binding (% of human insulin) (human insulin receptor),k′rel (hydrophobic index relative to human insulin) [1],Potency relative to human insulin (Sprague Dawley male rats) [%]
N^εB29—(N^α-(HOOC(CH2)14CO)-γ-Glu) des(B30) Human Insulin,26 % of human insulin,0.87,>50
N^εB29—(N^α-(HOOC(CH2)16CO)-γ-Glu—N-(γ-Glu)) des(B30) Human Insulin,11 % of human insulin,1.17,>50
N^εB29—(N—(Gly-OC(CH2)13CO-γ-L-Glu) des(B30) Human Insulin,22 % of human insulin,0.58,–
N^εB29—(N—(Gly-OC(CH2)16CO-γ-L-Glu) des(B30) Human Insulin,9.1 % of human insulin,1.57,–
N^εB29—(N—(L-Asp-OC(CH2)16CO)-γ-L-Glu) des(B30) Human Insulin,13 % of human insulin,0.70,–
N^εB29—(N—(L-Glu-OC(CH2)14CO-γ-L-Glu) des(B30) Human Insulin,13 % of human insulin,0.33,–
N^εB29—(N—(L-Sar-OC(CH2)13CO-γ-L-Glu) des(B30) Human Insulin,20 % of human insulin,0.63,–
N^εB29—(N—HOOC(CH2)8CO-γ-Glu) des(B30) human insulin,–,0.45,–
N^εB29—(N—HOOC(CH2)14CO-β-L-Asp) des(B30) Human Insulin,16 % of human insulin,0.69,>50
N^εB29—(N—HOOC(CH2)15CO-β-L-Asp) des(B30) Human Insulin,5.4 % of human insulin,1.09,–
N^εB29—(N—HOOC(CH2)15CO-γ-L-Glu) des(B30) Human Insulin,4 % of human insulin,1.13,–
N^εB29—(N—HOOC(CH2)16CO-α-Glu)-N-(AspAsp) des(B30) human insulin,–,1.07,–
N^εB29—(N—HOOC(CH2)16CO-α-L-Asp)—N-(β-L-Asp) des(B30) Human Insulin,14 % of human insulin,–,–
N^εB29—(N—HOOC(CH2)16CO-α-L-Glu)—N—(β-L-Asp) des(B30) Human Insulin,11 % of human insulin,1.11,–
N^εB29—(N—HOOC(CH2)16CO-γ-D-Glu) des(B30) Human Insulin,13 % of human insulin,1.4,–
N^εB29—(N—HOOC(CH2)16CO-δ-L-Aad) des(B30) Human Insulin,7 % of human insulin,0.84,–

# Second part, led by results:
Receptor binding (% of human insulin) (human insulin receptor),Substance,k′rel (hydrophobic index relative to human insulin) [1],Potency relative to human insulin (Sprague Dawley male rats) [%]
32 % of human insulin,N^εB29—(N—(Gly-OC(CH2)14CO-γ-L-Glu) des(B30) Human Insulin,0.88,>50
5.7 % of human insulin,N^εB29—(N—(HOOC(CH2)14CO-ε-L-LysCO—) des(B30) Human Insulin,0.90,–
9.4 % of human insulin,N^εB29—(N—(L-Glu-OC(CH2)14CO—) des(B30) Human Insulin,1.17,–
11 % of human insulin,N^εB29—(N—HOOC(CH2)13CO-β-L-Asp) des(B30) Human Insulin,0.47,–
15 % of human insulin,N^εB29—(N—HOOC(CH2)13CO-β-L-Glu) des(B30) Human Insulin,0.54,–
37 % of human insulin,N^εB29—(N—HOOC(CH2)14CO-β-D-Asp) des(B30) Human Insulin,–,–
13 % of human insulin,N^εB29—(N—HOOC(CH2)16CO-α-L-Asp) des(B30) Human Insulin,1.49,–
16 % of human insulin,N^εB29—(N—HOOC(CH2)16CO-α-L-Glu) des(B30) Human Insulin,1.51,–
11 % of human insulin,N^εB29—(N—HOOC(CH2)16CO-β-L-Asp) des(B30) Human Insulin,1.54,–
46 % of human insulin,N^εB29—[N^α-(HOOC(CH2)11)NHCO(CH2)3CO)-γ-L-Glu] des(B30) Human Insulin,0.42,–
9.4 % of human insulin,N^εB29—[N—(HOOC(CH2)16CO)—N-(carboxymethyl)-β-Ala] des(B30) Human Insulin,1.13,–
9.2 % of human insulin,NεB29—(Nα-(HOOC(CH2)16CO)-γ-Glu) des(B30) Human Insulin,1.15,>50
